The results in this text go back to patent US20130310313A1 (CHINA MEDICAL UNIVERSITY, published 2013).

In experiment [1] the target is T1, insulin receptor on human lymphocyte cells (IM-9) (human, UniProt P06213 28-1382).
T1 construct: whole, on cells; Endogenous receptor of IM-9 cells; also called IR; insulin receptors
Put plainly: whole cell receptor binding assay on IM-9 cells with 125I-insulin; EC50 of promoting 125I-insulin binding.

In experiment [2] the target is T1, insulin receptor on human lymphocyte …. Described as above. On the procedure: (§1) After incubation, the cells were chilled, centrifuged at 2000 rpm for 10 min at 4° C., and the pellets were washed twice with an ice-cold wash buffer (10 mmol/L Tris and 150 mmol/L NaCl, pH 7.6). The pellet was counted by a gamma counter. The assays were performed at least three times for each polypeptide. […] The lower value of EC₅₀ represents a stronger effect on promoting the binding.
This is another data set of the same source.

The target is the same in experiment [3]. Put plainly: whole cell receptor binding assay on IM-9 cells with 125I-insulin; EC50 defined as the concentration promoting 50% of the 125I-insulin to bind. On the procedure:
as §1

The term EC50 denotes the concentration that produces a half-maximal response. Lower therefore signals an effect from little substance. As for SRCQGKSSWPGLVGSTGAA (synthetic) [IRBP-1-19 (SEQ ID NO:2)], the EC50 in experiment [1] stood at 15.3 nM.

B1: IRBP-ZE (SEQ ID NO:187) (peptide)
peptide: IVIRTPIIT
notes: Homologue of IRBP-60-68 with several residues replaced; synthetic
In turn, B1 yielded an EC50 in experiment [2] of 4.94 nM.

B2: IRBP-MT (SEQ ID NO:179) (peptide)
peptide: IVYQVPTIG
notes: as for B1
In experiment [2], B2 registered an EC50 of 0.77 nM.

B3: IRBP-CP (SEQ ID NO:186) (peptide)
peptide: KVIRVPRIG
notes: as for B1
Take B3: the EC50 in experiment [2] turned out to be 0.84 nM. For the molecule VIIKVGSGATKDFRCDRVR (synthetic) [IRBP-34-52 (SEQ ID NO:4)], in experiment [1], the EC50 was greater than 25 nM. Take DFRCDRVRVWVTERGIVARPPTIG (synthetic) [IRBP-45-68 (SEQ ID NO:5)]: in experiment [1], the EC50 was greater than 25 nM.

B4: IRBP-AT (SEQ ID NO:182) (peptide)
peptide: IVVRNPTAG
notes: as for B1
In the case of B4, the response in experiment [2] was half-maximal at 9.98 nM (EC50).

B5: IRBP-VV-1 (SEQ ID NO:185) (peptide)
peptide: IVSMVPKIG
notes: as for B1
B5 showed an EC50 in experiment [2] of 0.96 nM.

B6: IRBP-VV-2 (SEQ ID NO:180) (peptide)
peptide: IVISVPTIG
notes: as for B1
For the molecule B6, in experiment [2], the response was half-maximal at 4.98 nM (EC50).

B7: IRBP-1-68 polypeptide (SEQ ID NO:1) (peptide)
chain: SRCQGKSSWPQLVGSTGAAAKAVIERENPRVRAVIIKVGSGATKDFRCDRVRVWVTERGIVARPPTIG
Molecule B7 showed a concentration for a half-maximal effect (EC50) in experiment [3] of 4.15 nM.

In experiment [1], IVARPPTIG (synthetic) [IRBP-60-68 (SEQ ID NO:7)] came in with an EC50 of 0.77 nM. In experiment [2], IVARPPAIG [IRBP-MC (SEQ ID NO:21)] gave a 50% effective concentration (EC50) of 0.86 nM.

B8: IRBP-CM (SEQ ID NO:184) (peptide)
peptide: LVVSPPRIG
notes: as for B1
Molecule B8 came in with an EC50 in experiment [2] of 0.92 nM.

B9: IRBP-SN (SEQ ID NO:181) (peptide)
peptide: IVTRVPVIG
notes: as for B1
As for B9, the EC50 in experiment [2] was determined as 9.79 nM.

B10: IRBP-LU (SEQ ID NO:188) (peptide)
peptide: VVTSVPHIT
notes: as for B1
In experiment [2], B10 showed an EC50 of 9.7 nM.

B11: IRBP-OS (SEQ ID NO:183) (peptide)
peptide: TVAKTPTIG
notes: as for B1
B11: the midpoint of the response in experiment [2], the EC50, lay at 9.93 nM.

For RVRVWVTERGIVARPPTIG [IRBP-50-68 (SEQ ID NO:6)], a half-maximal response in experiment [1] (EC50) required 0.73 nM.
